This passage reports Km results from PMC4643112, “Diversity of hydrolases from hydrothermal vent sediments of the Levante Bay, Vulcano Island (Aeolian archipelago) identified by activity-based metagenomics and biochemical characterization of new esterases and an arabinopyranosidase” (Applied Microbiology and Biotechnology, 2015).

Substrate in the series: CCCC(=O)Oc1ccc([N+](=O)[O-])cc1
Put plainly: colorimetric p-nitrophenol release. Particulars: 50 mM potassium phosphate pH 7.0, 0.1 % Triton X-100, standard assay, substrate varied 1-40 mM as printed. It counts as biochemical, Rhodothermus profundi.

B1: LIPESV12_26 (Rhodothermus profundi) (protein)
chain: MPHPTIQTVDLAYRSYGTEGPPLLILHGLLGSSGNWHTLARNAFSPHFRVFALDLRGHGRSPHAHPIDYPTMAADVQAFMDRHHLESAHVLGHSMGGKVAMELALSAPERVRRLVVVDIAPRSYPARHRTILDALQAIDPARYANRQAIDQALATYVPEAPIRQFLLKNLLYNPATRRYTWQVDLDGLVRYYDRINAAITDGRQFTGPVLFVRGARSDYLTEADWPTIRQLFPDACLATIPEAGHWVHADAPEAFAHLVLAFLQEKSGCVSSSKS
notes: full length, 275 residues, His6-tagged (pET-46c Ek/LIC), E. coli BL21(DE3); primers (translated) start MPHPTIQ, end VSSSKS; catalytic S94, D218, H245
In general, Km refers to the concentration of substrate that gives half-maximal velocity. Consider B1, for which the Km worked out at 100 µM.
